We go through one substance from patent US20180057888A1, “KUB5/HERA AS A DETERMINANT OF SENSITIVITY TO DNA DAMAGE” (priority 2015, published 2018).

This assay deals with RNA Polymerase II (RNAPII), phospho-Ser2 C-terminal domain (pS2-CTD) (UniProt P24928). The experiment in a line: cell-based or functional assay.

Sequence of myc-tagged wild-type Kub5-Hera (K-H) (Q9NQG5 whole entry): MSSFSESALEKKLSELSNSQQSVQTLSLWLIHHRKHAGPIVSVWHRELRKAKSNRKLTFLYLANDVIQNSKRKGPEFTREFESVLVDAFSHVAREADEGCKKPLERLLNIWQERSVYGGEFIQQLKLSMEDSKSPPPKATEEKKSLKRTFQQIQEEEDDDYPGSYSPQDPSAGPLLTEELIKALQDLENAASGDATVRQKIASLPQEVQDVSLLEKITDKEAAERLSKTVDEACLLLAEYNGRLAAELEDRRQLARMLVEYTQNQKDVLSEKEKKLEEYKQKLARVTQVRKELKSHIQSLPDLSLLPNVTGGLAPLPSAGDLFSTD

“myc-tagged wild-type Kub5-Hera (K-H) (from UniProt Q9NQG5 1-326)” registered a CDK1 promoter activity (luciferase reporter, 231 cells) of 3 fold.
